# Results as given in patent US20120283168A1.
# Target: human CCR10 (human) (UniProt P46092)
# Assay: cell-based or functional assay
# Sequence of human CCR10 (human) (P46092 whole entry): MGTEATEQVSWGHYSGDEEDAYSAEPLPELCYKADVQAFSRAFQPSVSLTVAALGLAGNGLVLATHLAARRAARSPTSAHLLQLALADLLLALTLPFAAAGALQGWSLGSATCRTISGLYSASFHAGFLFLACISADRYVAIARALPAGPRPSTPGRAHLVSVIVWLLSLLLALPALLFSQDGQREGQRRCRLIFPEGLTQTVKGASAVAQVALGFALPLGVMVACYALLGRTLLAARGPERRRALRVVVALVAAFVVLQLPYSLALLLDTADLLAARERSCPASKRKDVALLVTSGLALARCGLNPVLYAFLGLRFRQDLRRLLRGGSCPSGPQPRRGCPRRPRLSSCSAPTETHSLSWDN
Substance,IC50 (nM) Calcium Flux Assay [nM],IC50 (nM) Chemotaxis Assay [nM]
cyclo(-2Nal-Cyp-Trp-Dab-^DPip-Pip-) (peptide),43.2,9.7
cyclo(-2Nal-Cyp-Trp-Gln-^DPro-Tic-) (peptide),9.2,2
cyclo(-Bbta-Cyp-Trp-Dab-^DPro-Oic-) (peptide),220,18.9
cyclo(-Bip-Cyp-Trp-Dab-^DPro-Oic-) (peptide),8.1,1.8
cyclo(-Cha-Cyp-Trp-Dab-^DPro-Oic-) (peptide),243,
cyclo(-Nle(6OBn)-Cyp-Trp-Dab-^DPro-Oic-) (peptide),,16.6
cyclo(-OctG-Cyp-Trp-Dab-^DPro-Oic-) (peptide),40.4,4.2
cyclo(-Phe(3CF3)-Cyp-Trp-Dab-^DPro-Oic-) (peptide),41.1,3.2
cyclo(-Phe(4CF3)-Cyp-Trp-3Pal-^DPic-Oic-) (peptide),63.2,2.7
cyclo(-Phe(4CF3)-Cyp-Trp-Dab-^DPip-Pro((4R)Ph)-) (peptide),14.8,22
cyclo(-Phe(4CF3)-Cyp-Trp-Dab-^DPro-Hyp(4BrBn)-) (peptide),22.6,
cyclo(-Phe(4CF3)-Cyp-Trp-Dab-^DPro-Oic-) (peptide),58.1,13.4
cyclo(-Phe(4CN)-Cyp-Phe(4F)-Ser-^DPro-Hyp(Bn)-) (peptide),1.9,13.5
cyclo(-Phe(4CN)-Cyp-Trp-Dab-^DPro-Hyp(Bn)-) (peptide),181,5.3
cyclo(-Phe(4CN)-Cyp-Trp-Dab-^DPro-Oic-) (peptide),280,48
cyclo(-Phe(4CN)-Cyp-Trp-Gln-^DPro-Hyp(Bn)-) (peptide),21.7,
cyclo(-Phe(4CN)-Cyp-Trp-Ser-^DPip-Hyp(Bn)-) (peptide),0.5,1.8
cyclo(-Phe(4CN)-Cyp-Trp-Ser-^DPro-Hyp(4BrBn)-) (peptide),5.3,0.6
cyclo(-Phe(4CN)-Cyp-Trp-Ser-^DPro-Oic-) (peptide),80.3,
cyclo(-Phe(4COOMe)-Cyp-Trp-Dab-^DPro-Oic-) (peptide),476,14.7
cyclo(-Trp(5OH)-Chx-Trp(5OH)-Arg-^DPro-Oic-) (peptide),548,11.6
cyclo(-Trp(5OH)-Cyp-Trp(5OH)-Dap-^DPro-Oic-) (peptide),246,
"cyclo(-Trp(5OH)-Cyp-Trp-Arg-^DPro-Thz(5,5Me2)-) (peptide)",214,109
cyclo(-Trp(5OH)-Cyp-Trp-Arg-^DPro-Tic-) (peptide),52.5,
cyclo(-Trp(5OH)-Cyp-Trp-Gln-^DPro-Thz-) (peptide),144,3.1
cyclo(-Trp(6Cl)-Cyp-Trp-Dab-^DPro-Hyp(Bn)-) (peptide),8.5,8.6

Substance,IC50 (nM) Calcium Flux Assay [nM],IC50 (nM) Chemotaxis Assay [nM]
cyclo(-Trp(6Cl)-Cyp-Trp-Ser-^DPro-Oic-) (peptide),6.3,5
"cyclo(-Trp-4,4-AC-ThioTHP-Trp-Dab-^DPro-Oic-) (peptide)",823,21.9
cyclo(-Trp-Ac7c-Trp-Dab-^DPro-Oic-) (peptide),393,7.2
cyclo(-Trp-Ac8c-Trp-Dab-^DPro-Oic-) (peptide),706,257
cyclo(-Trp-Chx(4-oxo)-Trp-Dab-^DPro-Oic-) (peptide),262,17.8
cyclo(-Trp-Chx-Trp-Dab-^DPro-Oic-) (peptide),333,3.1
cyclo(-Trp-Cyp-2Nal-Dab-^DPip-Oic-) (peptide),70.5,
cyclo(-Trp-Cyp-2Nal-Gln-^DPro-Oic-) (peptide),35.3,
cyclo(-Trp-Cyp-Ala(2Furyl)-Dab-^DPro-Oic-) (peptide),132,
cyclo(-Trp-Cyp-Ala(2Quin)-Dab-^DPro-Oic-) (peptide),283,30.3
cyclo(-Trp-Cyp-Phe(4CF3)-Dab-^DPro-Oic-) (peptide),58.6,38.7
cyclo(-Trp-Cyp-Phe(4Cl)-Dab-^DPro-Hyp(Bn)-) (peptide),39.9,
cyclo(-Trp-Cyp-Phe(4Cl)-Ser-^DPro-Oic-) (peptide),6.1,2.7
cyclo(-Trp-Cyp-Phe(4F)-Dab-^DPro-Oic-) (peptide),120,
cyclo(-Trp-Cyp-Phe(4F)-Ser-^DPro-Oic-) (peptide),8.8,12
cyclo(-Trp-Cyp-Trp-Ala(Ppz)-^DPro-Oic-) (peptide),1060,16.4
cyclo(-Trp-Cyp-Trp-Arg-^DAze-Tic-) (peptide),70.4,
cyclo(-Trp-Cyp-Trp-Arg-^DPro-Thz-) (peptide),70.6,
cyclo(-Trp-Cyp-Trp-Arg-^DPro-Tic(7OH)-) (peptide),78.5,
cyclo(-Trp-Cyp-Trp-Dab(4Me2NPhSO2)-^DPro-Oic-) (peptide),6.4,
cyclo(-Trp-Cyp-Trp-Dab((MeO(CH2)2)(Me)NCO)-^DPro-Oic-) (peptide),8.1,5.6
cyclo(-Trp-Cyp-Trp-Dab(Ac)-^DPro-Oic-) (peptide),30.3,4.8
cyclo(-Trp-Cyp-Trp-Dab(Dab)-^DPro-Oic-) (peptide),567,50.2
cyclo(-Trp-Cyp-Trp-Dab(MEMCO)-^DPro-Oic-) (peptide),62.8,11.5
cyclo(-Trp-Cyp-Trp-Dab(MeO(CH2)2NHCO)-^DPro-Oic-) (peptide),24.2,5.3
cyclo(-Trp-Cyp-Trp-Dab(MePpzCO)-^DPro-Oic-) (peptide),53.9,5.3

Substance,IC50 (nM) Calcium Flux Assay [nM],IC50 (nM) Chemotaxis Assay [nM]
cyclo(-Trp-Cyp-Trp-Dab(MeSO2)-^DPro-Oic-) (peptide),0.2,3.4
cyclo(-Trp-Cyp-Trp-Dab(morphCO)-^DPro-Oic-) (peptide),3,11.1
cyclo(-Trp-Cyp-Trp-Dab-^DAze-Tic-) (peptide),57,
cyclo(-Trp-Cyp-Trp-Dab-^DPip-Oic-) (peptide),26,17
cyclo(-Trp-Cyp-Trp-Dab-^DPro-(4S)-Hyp(Bn)-) (peptide),260,60.1
cyclo(-Trp-Cyp-Trp-Dab-^DPro-Hyp(3CNBn)-) (peptide),127,50.7
cyclo(-Trp-Cyp-Trp-Dab-^DPro-Hyp(4BrBn)-) (peptide),11.6,2.5
cyclo(-Trp-Cyp-Trp-Dab-^DPro-Hyp(4CNBn)-) (peptide),48.9,143
cyclo(-Trp-Cyp-Trp-Dab-^DPro-Hyp(Bn)-) (peptide),65.8,14
cyclo(-Trp-Cyp-Trp-Dab-^DPro-Hyp(CONHPh)-) (peptide),150,184
cyclo(-Trp-Cyp-Trp-Dab-^DPro-Hyp(Ph)-) (peptide),42,37
cyclo(-Trp-Cyp-Trp-Dab-^DPro-Hyp-) (peptide),190,
cyclo(-Trp-Cyp-Trp-Dab-^DPro-Oic-) (peptide),123,29
"cyclo(-Trp-Cyp-Trp-Dab-^DPro-Pro(5,5Me2)-) (peptide)",82.5,14.2
cyclo(-Trp-Cyp-Trp-Dab-^DPro-Pro((4R)3CNBn)-) (peptide),27.9,3.8
cyclo(-Trp-Cyp-Trp-Dab-^DPro-Pro((4R)4BrBn)-) (peptide),15.8,9
cyclo(-Trp-Cyp-Trp-Dab-^DPro-Pro((4R)Bn)-) (peptide),26.1,2.3
cyclo(-Trp-Cyp-Trp-Dab-^DPro-Pro((4S)F)-) (peptide),860,42
cyclo(-Trp-Cyp-Trp-Dab-^DPro-Pro((4S)cHex)-) (peptide),54.3,140
cyclo(-Trp-Cyp-Trp-Dab-^DPro-Thz-) (peptide),134,19.6
cyclo(-Trp-Cyp-Trp-Dap((MeO(CH2)2)2)-^DPro-Oic-) (peptide),399,15.2
cyclo(-Trp-Cyp-Trp-Dap(CONH2)-^DPro-Oic-) (peptide),20,4.7
cyclo(-Trp-Cyp-Trp-Dap(MeO(CH2)2)-^DPro-Oic-) (peptide),56.8,6.9
cyclo(-Trp-Cyp-Trp-Dap-^DPro-Oic-) (peptide),52.7,
